Experiments:
Experiment in all cases: IEDB peptide-MHC binding, purified MHC/competitive/radioactivity; filed as Kd, often an IC50 or EC50 that approximates it; ≥ and ≤ were set here for values at or beyond the usual limits of such assays
HLA-A*31:01 = target: HLA-A*31:01
HLA-A*11:01 = target: HLA-A*11:01
HLA-A*33:01 = target: HLA-A*33:01
HLA-A*03:01 = target: HLA-A*03:01
HLA-A*68:01 = target: HLA-A*68:01
[1] = source organism: SARS coronavirus Tor2
[2] = source organism: Vaccinia virus WR
[3] = source organism: Dengue virus 4 Philippines/H241/1956
[4] = source organism: Mammarenavirus brazilense
[5] = source organism: Dengue virus 2 Jamaica/1409/1983
[6] = source organism: Dengue virus 3 Martinique/1243/1999
[7] = source organism: Lassa virus GA391
[8] = source organism: Vaccinia virus Copenhagen
[9] = source organism: Dengue virus 1 Nauru/West Pac/1974
[10] = source organism: Mammarenavirus machupoense
[11] = source organism: Mammarenavirus lassaense

Sequence | Kd (HLA-A*31:01; [2]) [nM] | Kd (HLA-A*11:01; [2]) [nM] | Kd (HLA-A*33:01; [2]) [nM] | Kd (HLA-A*03:01; [2]) [nM] | Kd (HLA-A*68:01; [2]) [nM] | other results
AANTVIWDY |  |  |  |  |  | Kd (HLA-A*31:01; [1]): ≥ 38100 nM; Kd (HLA-A*11:01; [1]): 107 nM; Kd (HLA-A*33:01; [1]): ≥ 77700 nM; Kd (HLA-A*03:01; [1]): ≥ 78000 nM; Kd (HLA-A*68:01; [1]): 14200 nM
AISAVYFKAK | 1640 | 26 | ≥ 70000 | 8.04 | 2530 | 
ALTLHWFRK |  |  |  |  |  | Kd (HLA-A*11:01; [3]): 100 nM; Kd (HLA-A*03:01; [3]): 15 nM
AQQFANVISK | 1940 | 2.68 | ≥ 70000 | 83.8 | 17600 | 
CEMNHVNSMH |  |  |  |  |  | Kd (HLA-A*68:01; [4]): ≥ 48100 nM
DAEACYIYK | 208 | 57.5 | 234 | 1350 | 49.2 | 
DFIRRKYLIY | ≥ 70000 | ≥ 20200 | 10400 | 8650 | 1100 | 
DGCWYGMEIR |  |  |  |  |  | Kd (HLA-A*33:01; [5]): 154 nM
DILTYNKTSK | ≥ 38100 | ≥ 21100 | 1760 | 2320 | 2970 | 
DLTTMPTYK | 630 | 293 | 914 | 757 | 128 | 
DNQKLSYLK |  |  |  |  |  | Kd (HLA-A*31:01; [4]): 2650 nM; Kd (HLA-A*33:01; [4]): 8370 nM; Kd (HLA-A*03:01; [4]): ≥ 78000 nM; Kd (HLA-A*68:01; [4]): 7480 nM
DTRTPKAKR |  |  |  |  |  | Kd (HLA-A*33:01; source organism: Dengue virus 1 Singapore/S275/1990): 93.7 nM
DVHPGEPVVK | ≥ 32000 | ≥ 23700 | ≥ 70000 | 15400 | 57 | 
DVRDKRRKY | ≥ 77900 | ≥ 77900 | ≥ 77700 | ≥ 28900 | ≥ 53800 | 
EFVMCLEAK | 9760 | 965 | 153 | ≥ 54200 | 267 | 
EFWKLVDRER |  |  |  |  |  | Kd (HLA-A*33:01; source organism: Dengue virus 3 Sri Lanka/1266/2000): 2.92 nM
EIKAEMQLK | ≥ 43900 | 1670 | 1520 | 1020 | 15.7 | 
EILKINSVKY | 1040 | 6290 | 5170 | 6090 | 3870 | 
EILRNYLRLY | 3460 | 2110 | 123 | 489 | 512 | 
ELAELLEMKY | ≥ 50800 | ≥ 29500 | ≥ 70000 | 14200 | 2840 | 
ELGIAIFNNR | 59.9 | 1470 | 160 | 961 | 40.6 | 

Sequence | Kd (HLA-A*31:01; [2]) [nM] | Kd (HLA-A*11:01; [2]) [nM] | Kd (HLA-A*33:01; [2]) [nM] | Kd (HLA-A*03:01; [2]) [nM] | Kd (HLA-A*68:01; [2]) [nM] | other results
ELYVSSSYK | ≥ 77900 | 12.4 | ≥ 54200 | 0.73 | 6.71 | 
EMGLLETTKR |  |  |  |  |  | Kd (HLA-A*33:01; [6]): 58.2 nM
ENAVWDQFK |  |  |  |  |  | Kd (HLA-A*31:01; [7]): ≥ 77900 nM; Kd (HLA-A*11:01; [7]): 15100 nM; Kd (HLA-A*33:01; [7]): 1020 nM; Kd (HLA-A*03:01; [7]): ≥ 31500 nM; Kd (HLA-A*68:01; [7]): 250 nM
ESNIEIMDK | ≥ 77900 | 10800 | ≥ 77700 | 15500 | 11.2 | 
ETKGVERLKR |  |  |  |  |  | Kd (HLA-A*33:01; [6]): 336 nM; Kd (HLA-A*68:01; [6]): 14.2 nM
ETTMRGAKR |  |  |  |  |  | Kd (HLA-A*33:01; [5]): 117 nM; Kd (HLA-A*68:01; [5]): 35.8 nM
FASADNHPK | 12400 | 174 | 1240 | 7960 | 55.7 | 
FIRIIRPDY | 7050 | ≥ 56200 | ≥ 24700 | ≥ 78000 | 3090 | 
FLLNISYLCH |  |  |  |  |  | Kd (HLA-A*31:01; [4]): 5830 nM; Kd (HLA-A*11:01; [4]): ≥ 46600 nM; Kd (HLA-A*33:01; [4]): 5.32 nM; Kd (HLA-A*03:01; [4]): 11800 nM
FLLRHYYNKR | 16.2 | 1130 | 17.4 | 1840 | 1850 | 
FMRFFQLLR | 0.668 | 354 | 1.97 | 141 | 11.7 | 
FVVTLIPLCR |  |  |  |  |  | Kd (HLA-A*33:01; [3]): 11.8 nM; Kd (HLA-A*68:01; [3]): 3.1 nM
GLACYRFVK |  |  |  |  |  | Kd (HLA-A*31:01; [8]): 217 nM; Kd (HLA-A*11:01; [8]): 24 nM; Kd (HLA-A*33:01; [8]): 1830 nM; Kd (HLA-A*03:01; [8]): 22.2 nM; Kd (HLA-A*68:01; [8]): 703 nM
GMLIYSMWGK | 271 | 17.5 | 9910 | 8.57 | 54.6 | 
GQLKLNWFK |  |  |  |  |  | Kd (HLA-A*11:01; [5]): 28.1 nM
GSIKIKQDVR | 281 | 611 | 2480 | 8060 | 253 | 
GTILIKVEYK |  |  |  |  |  | Kd (HLA-A*11:01; [6]): 69.2 nM; Kd (HLA-A*68:01; [6]): 38.2 nM
GVTLFFLSGR |  |  |  |  |  | Kd (HLA-A*31:01; [9]): ≥ 70000 nM; Kd (HLA-A*33:01; [9]): 56.2 nM
HYIHCFRKPH |  |  |  |  |  | Kd (HLA-A*31:01; [10]): 89.8 nM; Kd (HLA-A*11:01; [10]): ≥ 69700 nM; Kd (HLA-A*33:01; [10]): 589 nM; Kd (HLA-A*03:01; [10]): ≥ 70000 nM; Kd (HLA-A*68:01; [10]): ≥ 70100 nM
IAARGYISTR |  |  |  |  |  | Kd (HLA-A*68:01; [5]): 12 nM
ICKMPLPTR |  |  |  |  |  | Kd (HLA-A*31:01; [11]): 36.8 nM; Kd (HLA-A*11:01; [11]): 6030 nM; Kd (HLA-A*33:01; [11]): 775 nM; Kd (HLA-A*03:01; [11]): ≥ 40300 nM; Kd (HLA-A*68:01; [11]): 16100 nM

Source: the Immune Epitope Database (IEDB)
